Measurements from US10941182 (Amgen, dated 2021).
Starred links: 1 amine or outer side, 2 acyl side, 3 side chain; linkers in the order of their positions; H or OH if unused. Non-standard residues stand in square brackets, D forms with d. Primed or numbered codes have the meaning given here. No end group written: not given here. *: point of attachment. dBip = N[C@H](Cc1ccc(-c2ccccc2)cc1)C(=O)O; Oic = O=C(O)[C@@H]1C[C@@H]2CCCC[C@@H]2N1; Phe(4-Cl) = N[C@@H](Cc1ccc(Cl)cc1)C(=O)O; dPhe(4-Cl) = N[C@H](Cc1ccc(Cl)cc1)C(=O)O; Phe(4-I) = N[C@@H](Cc1ccc(I)cc1)C(=O)O; γGlu = O=C(O)[C@H](CCC(=O)[*:2])N[*:1]; d1Nal = N[C@H](Cc1cccc2ccccc12)C(=O)O; NMeR = CN[C@@H](CCCNC(=N)N)C(=O)O; Tridecanoyl = CCCCCCCCCCCCC(=O)*; hArg = N=C(N)NCCCC[C@H](N)C(=O)O; β3hR = N=C(N)NCCC[C@H](N)CC(=O)O; Cha = N[C@@H](CC1CCCCC1)C(=O)O; β3hQ = NC(=O)CC[C@H](N)CC(=O)O; β3hN = NC(=O)C[C@H](N)CC(=O)O; β3hL = CC(C)C[C@H](N)CC(=O)O; NMeV = CN[C@H](C(=O)O)C(C)C; β3hK = NCCCC[C@H](N)CC(=O)O; β3hP = O=C(O)C[C@@H]1CCCN1; code O = not defined here; β3hS = N[C@@H](CO)CC(=O)O; Nle = CCCC[C@H](N)C(=O)O; Orn = NCCC[C@H](N)C(=O)O; Pip′ = not defined here; BPhe = β-phenylalanine; AEEA = NCCOCCOCC(=O)O; Aib = CC(C)(N)C(=O)O; βAla = NCCC(=O)O; Sar = CNCC(=O)O

T1: human APJ receptor (human, UniProt P35414 1-380)
T1 sequence (looked up): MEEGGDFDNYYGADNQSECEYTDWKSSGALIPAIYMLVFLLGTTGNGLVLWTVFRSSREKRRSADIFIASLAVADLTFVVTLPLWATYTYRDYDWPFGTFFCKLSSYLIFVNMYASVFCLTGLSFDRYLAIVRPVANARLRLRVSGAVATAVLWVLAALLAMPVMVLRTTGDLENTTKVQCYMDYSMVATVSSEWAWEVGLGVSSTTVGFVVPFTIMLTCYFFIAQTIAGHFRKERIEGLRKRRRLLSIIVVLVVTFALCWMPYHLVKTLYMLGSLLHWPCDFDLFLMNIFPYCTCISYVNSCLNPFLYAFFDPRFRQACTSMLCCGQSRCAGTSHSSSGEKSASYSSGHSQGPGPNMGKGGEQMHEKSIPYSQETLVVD

T2: rat APJ receptor (rat, UniProt Q9JHG3 1-377)
T2 sequence (looked up): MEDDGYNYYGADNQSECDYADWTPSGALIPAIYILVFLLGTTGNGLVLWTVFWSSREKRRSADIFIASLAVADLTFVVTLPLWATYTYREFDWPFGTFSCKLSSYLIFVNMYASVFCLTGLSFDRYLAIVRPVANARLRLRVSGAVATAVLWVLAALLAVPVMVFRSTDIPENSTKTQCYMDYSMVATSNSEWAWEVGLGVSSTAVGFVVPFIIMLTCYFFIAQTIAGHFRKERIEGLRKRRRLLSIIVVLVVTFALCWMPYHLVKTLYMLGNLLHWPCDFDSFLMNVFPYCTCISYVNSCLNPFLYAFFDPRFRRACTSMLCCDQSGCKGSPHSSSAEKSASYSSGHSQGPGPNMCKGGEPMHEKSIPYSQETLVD

B1: apelin polypeptide SEQ ID NO: 285 (peptide)
peptide: Tridecanoyl-[γGlu][AEEA][AEEA]Q[dR]P[NMeR][Cha]SHKG[Oic][Nle][d1Nal]-OH
SMILES: CCCCCCCCCCCCC(=O)N[C@@H](CCC(=O)NCCOCCOCC(=O)NCCOCCOCC(=O)N[C@@H](CCC(N)=O)C(=O)N[C@H](CCCNC(=N)N)C(=O)N1CCC[C@H]1C(=O)N(C)[C@@H](CCCNC(=N)N)C(=O)N[C@@H](CC1CCCCC1)C(=O)N[C@@H](CO)C(=O)N[C@@H](Cc1c[nH]cn1)C(=O)N[C@@H](CCCCN)C(=O)NCC(=O)N1[C@H](C(=O)N[C@@H](CCCC)C(=O)N[C@H](Cc2cccc3ccccc23)C(=O)O)C[C@@H]2CCCC[C@@H]21)C(=O)O
B2: apelin polypeptide SEQ ID NO: 22 (peptide)
peptide: Ac-[hArg][hArg]Q[dR]P[NMeR][Cha]SHKG[Oic][Phe(4-I)]P[dBip]-OH
SMILES: CC(=O)N[C@@H](CCCCNC(=N)N)C(=O)N[C@@H](CCCCNC(=N)N)C(=O)N[C@@H](CCC(N)=O)C(=O)N[C@H](CCCNC(=N)N)C(=O)N1CCC[C@H]1C(=O)N(C)[C@@H](CCCNC(=N)N)C(=O)N[C@@H](CC1CCCCC1)C(=O)N[C@@H](CO)C(=O)N[C@@H](Cc1c[nH]cn1)C(=O)N[C@@H](CCCCN)C(=O)NCC(=O)N1[C@H](C(=O)N[C@@H](Cc2ccc(I)cc2)C(=O)N2CCC[C@H]2C(=O)N[C@H](Cc2ccc(-c3ccccc3)cc2)C(=O)O)C[C@@H]2CCCC[C@@H]21

Legend:
human APJ receptor = molecular target: T1, human APJ receptor; test: cell-based or functional assay
rat APJ receptor = molecular target: T2, rat APJ receptor; test: cell-based or functional assay

Binder | EC50 Human APJ Receptor (human APJ receptor) [pM] | EC50 Rat APJ Receptor (rat APJ receptor) [pM]
B1 | 8220 | 122000
[Orn]F[NMeR][hArg]Q[hArg]P[hArg][Cha]SHKG[Oic][Nle]P[Phe(4-Cl)] [apelin polypeptide SEQ ID NO: 669] | 5300 | 5590
[Orn]F[hArg][NMeR]Q[hArg]P[hArg][Cha]SHKG[Oic][Nle]P[Phe(4-Cl)] [apelin polypeptide SEQ ID NO: 670] | 131 | 254
B2 | 1520 | 4520
[Orn]F[hArg][hArg]Q[NMeR]P[hArg][Cha]SHKG[Oic][Nle]P[Phe(4-Cl)] [apelin polypeptide SEQ ID NO: 671] | 162 | 387
[Orn]F[hArg][hArg]Q[NMeR]P[NMeR][Cha]SHKG[Oic][Nle]P[Phe(4-Cl)] [apelin polypeptide SEQ ID NO: 672] | 445 | 845
[code O]F[hArg][NMeR]Q[NMeR]P[NMeR][Cha]SHKG[Oic][Nle]P[Phe(4-Cl)] (reading uncertain) [apelin polypeptide SEQ ID NO: 673] | 1340 | 1340
Q[hArg]P[NMeR][Cha]SHKG[Oic][Nle]P[Phe(4-Cl)] [apelin polypeptide SEQ ID NO: 675] | 159 | 189
[Orn]F[hArg][hArg]Q[hArg][Sar][hArg][Cha]SHKG[Oic][Nle]P[Phe(4-Cl)] [apelin polypeptide SEQ ID NO: 676] | 762 | 840
[Orn]F[hArg][hArg]Q[hArg][Aib][hArg][Cha]SHKG[Oic][Nle]P[Phe(4-Cl)] [apelin polypeptide SEQ ID NO: 677] | 3500 | 3480
[Orn]F[hArg][hArg]Q[hArg]P[hArg][Cha][Sar]HKG[Oic][Nle]P[Phe(4-Cl)] [apelin polypeptide SEQ ID NO: 678] | 664 | 2110
[Orn]F[hArg][hArg]Q[hArg]P[hArg][Cha]S[NMeV]KG[Oic][Nle]P[Phe(4-Cl)] [apelin polypeptide SEQ ID NO: 679] | 3630 | 33000
[Orn]F[hArg][hArg]Q[hArg]P[hArg][Cha]SHK[Sar][Oic][Nle]P[Phe(4-Cl)] [apelin polypeptide SEQ ID NO: 680] | 116 | 401
Ac-[hArg]Q[dR]P[NMeR][Cha]SHKG[Oic][Nle]P[Phe(4-Cl)]-OH [apelin polypeptide SEQ ID NO: 23] | 384 | 32200
[Orn]F[hArg][hArg]Q[hArg]P[hArg][Cha]SHK[Aib][Oic][Nle]P[Phe(4-Cl)] [apelin polypeptide SEQ ID NO: 681] | 723 | 1300
[Orn]F[hArg][hArg]Q[hArg]P[hArg][Cha]SHKG[Aib][Nle]P[Phe(4-Cl)] [apelin polypeptide SEQ ID NO: 682] | 1530 | 7980

Binder | EC50 Human APJ Receptor (human APJ receptor) [pM] | EC50 Rat APJ Receptor (rat APJ receptor) [pM]
[Orn]F[hArg][hArg]Q[hArg]P[hArg][Cha]SHKG[Sar][Nle]P[Phe(4-Cl)] [apelin polypeptide SEQ ID NO: 683] | 379 | 926
[Orn]F[hArg][hArg]Q[hArg]P[hArg][Cha]SHKG[Oic][Nle][Aib][Phe(4-Cl)] [apelin polypeptide SEQ ID NO: 685] | 94.6 | 168
[Orn][BPhe][hArg][hArg]Q[hArg]P[hArg][Cha]SHKG[Oic][Nle]P[Phe(4-Cl)] [apelin polypeptide SEQ ID NO: 687] | 91.8 | 175
[Orn]F[hArg][β3hR]Q[hArg]P[hArg][Cha]SHKG[Oic][Nle]P[Phe(4-Cl)] [apelin polypeptide SEQ ID NO: 689] | 114 | 349
[Orn]F[hArg][hArg][β3hQ][hArg]P[hArg][Cha]SHKG[Oic][Nle]P[Phe(4-Cl)] [apelin polypeptide SEQ ID NO: 690] | 111 | 183
[Orn]F[hArg][hArg][β3hN][hArg]P[hArg][Cha]SHKG[Oic][Nle]P[Phe(4-Cl)] [apelin polypeptide SEQ ID NO: 691] | 453 | 424
Ac-[hArg]Q[dR]P[NMeR][Cha]SHKG[Oic][Nle]P[dPhe(4-Cl)]-OH [apelin polypeptide SEQ ID NO: 24] | 7870 | 134000
[Orn]F[hArg][hArg]Q[β3hR]P[hArg][Cha]SHKG[Oic][Nle]P[Phe(4-Cl)] [apelin polypeptide SEQ ID NO: 693] | 229 | 505
[Orn]F[hArg][hArg]Q[hArg][β3hP][hArg][Cha]SHKG[Oic][Nle]P[Phe(4-Cl)] [apelin polypeptide SEQ ID NO: 694] | 458 | 602
[Orn]F[hArg][hArg]Q[hArg][Pip′][hArg][Cha]SHKG[Oic][Nle]P[Phe(4-Cl)] [apelin polypeptide SEQ ID NO: 695] | 313 | 384
[Orn]F[hArg][hArg]Q[hArg]P[β3hR][Cha]SHKG[Oic][Nle]P[Phe(4-Cl)] [apelin polypeptide SEQ ID NO: 696] | 261 | 300
[Orn]F[hArg][hArg]Q[hArg]P[hArg][β3hL]SHKG[Oic][Nle]P[Phe(4-Cl)] [apelin polypeptide SEQ ID NO: 697] | 225 | 495
[Orn]F[hArg][hArg]Q[hArg]P[hArg][Cha][β3hS]HKG[Oic][Nle]P[Phe(4-Cl)] [apelin polypeptide SEQ ID NO: 698] | 539 | 734
[Orn]F[hArg][hArg]Q[hArg]P[hArg][Cha][βAla]HKG[Oic][Nle]P[Phe(4-Cl)] [apelin polypeptide SEQ ID NO: 699] | 440 | 603
[Orn]F[hArg][hArg]Q[hArg]P[hArg][Cha]S[βAla]KG[Oic][Nle]P[Phe(4-Cl)] [apelin polypeptide SEQ ID NO: 700] | 949 | 3110
[Orn]F[hArg][hArg]Q[hArg]P[hArg][Cha]SH[β3hK]G[Oic][Nle]P[Phe(4-Cl)] [apelin polypeptide SEQ ID NO: 701] | 316 | 879
